Assay results reported in PMC6430831.

Legend:
[1] = target: IKKε (UniProt Q14164); assay: anti-GEF-H1 co-IP, IKKε blot; conditions: sites S886
[2] = target: IRF5 (UniProt Q13568); assay: anti-GEF-H1 co-IP, IRF5 blot; conditions: reference: wild type; sites S886

Substance: GEF-H1 (from UniProt Q92974) S324A/S886A
- binding against the reference ([1]; reference: S324A): stronger

Substance: GEF-H1 (from UniProt Q92974) S399A/S886A
- binding against the reference ([1]; reference: S399A): gained

Substance: GEF-H1 (from UniProt Q92974) S886A
- binding against the reference [2]: stronger
- binding against the reference ([1]; reference: wild type): stronger
